The source of these data is the nanobody polyreactivity screen of Harvey et al. (2022).

This series can be described thus: yeast display, Sf9 membrane polyspecificity reagent, FACS + sequencing; frameworks hold sequencing errors. Summed up: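 Galactose-induced (36–48 hours) yeast carrying a synthetic nanobody display library were exposed to 10% biotinylated, detergent-solubilized Sf9 membrane reagent at 4 °C for 1 hour. FACS followed streptavidin microbead enrichment, using low and high (top ~1%) gates for expression (anti-HA) and reagent binding (streptavidin). Colony PCR, MiSeq 2 × 250 sequencing and CDR-length filtering followed. Labels for polyreactivity reflect the gate of origin.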
Consider “QVQLVESGGVLVQAGGSLRLSCAASGSIFGSYTMGWYRQAPGKEREMVAAISGGGASTYYADSVKGRFTISRDNAKNTVYLQMNSLKPEDTAVYYCYKRGVIERRKPWHYSTFDYWGQGTQVTVSS”, for which the “polyreactivity (PSR sort gate)” value was “low polyreactivity”.
Consider “QVQLVESGGGLVQAGGSLRLSCAASGRTSLVYAMGWYRQAPGKERELVAAITSSGGTTYYADSVKGRFTISRDNAKNTVYLQMNSLKPEDTAVYYCAADVDVSYWRMEYWGQGTQVTVSS”, for which the “polyreactivity (PSR sort gate)” value is given as “high polyreactivity”.
Consider “QVQLVESGGGLVQAGGSLRLSCAASASIFYQNAMGWYRQAPGKERELVAAISSAGSTYYADSVKGRFTISRDNAKNTVYLQMNSVKPEDTAVYYLLRGQGTQVTVSS”, for which the “polyreactivity (PSR sort gate)” value is “low polyreactivity”.
“QVQLVESGGRLVQARGSLSLSCAASGRTFLRYAMGWYRQAPGKERELVAAISQRGGSTYYADSVKGRFTISRDNAKNTVYLQMNRLKPEDTAVYYCAADFPSSQAVDSWGQGTQVTVSS”: the “polyreactivity (PSR sort gate)” value was “high polyreactivity”.
Regarding “QDQLVESGGGLVQAGGSLRLSCAASGRTFVAYAMGWSRQAPGKERELVARISSGGSTYYADSVKGRFTISRDNAKNTVYLQMNSLKPEDTAVYYCAADRGPYFVPWRRYDYWGQGTQVTVSS”, the “polyreactivity (PSR sort gate)” value is listed as “low polyreactivity”.
In the case of “QVQLVESGGGLVQAGGSLRLSCAASGRIFGYYAMGWYRPAPGKEMELVAAIRYSSGRTYYADSVKGRFTISRDNAKNTVYLQMNSLKPEDTAVYYCAAKDQATYQLNYWGQGTQVTVSS” it was “high polyreactivity”; in that of “QVQLVESGGCLVQAGGSLRLSCAASGSTFTGYAMGWYRQAPGKEREFVATITKRGGRTYYADSVKGRFTISRDHAKNTVYLQMNSLKPEDTAVYYCARDQGKLVVPYDYWGQGTQVTVSS”, “high polyreactivity”.
With “QDQLVESGGGLVQAGGSLRLSCAASGGTFWAYAMGWYRQAPGKERENVAAIRRSGRTYYADSVKGRITISRDNAKNTVYLQMNRLKPEDTAVDYCAKYGPTPGTLRDDYWGQGTQVTVSS” the entry was “high polyreactivity”.
In the case of “QVQLVESGGGLVQAGGSLRLSCAASGRIFGLNAMGWYRQAPGKEREIVAAIRWRGGSTYYADSVKGLFTISRDNANNNVYLLMNSLKPEDTAVYYCAADRNLGVSRYGYWGQGTQVNVSS” it was “high polyreactivity”.
“QVQLVESGGGLVQAGGRLRLSCDASGRIFTYNAMGWYRQAPGKERELVGAITFSGGGTYYADSVKGRFTISRDNAKNTVYLVMTSLKPEDTAVYYCNQVSFGYSTYGYWGQGTQVTVSS”: the “polyreactivity (PSR sort gate)” value is “low polyreactivity”.
With “QVQLVDSGGGLVQAGGSLRLSCAASGRTFLSMGWYRQAPGKERELVAAISRTNYADSVKGRFTISRDNAKNTVYLQMNSLKPEDTAVYYCAAVPKYGRYVRIGYPNDYWGQGTQVTVSS” the entry was “low polyreactivity”; with “QVQLVESGGGLVQAGGSLRISCAASGRTFADYAMGWSRQEPGKERELVAAISWSGGSTYYADSVKGRFTISCDNAKNTVYLQMNSLKPEDTAVYYSNAVRQRGYDYWGQGTQVTVSS”, “low polyreactivity”; with “QVQLVESGGGLVKAGGSLRLSCAASGFTLSRYTKGWYRQAPGKEWELVAAISWSGGSTYYADSVKGRFTISRDNAKNTVYLQMNSLKPEDSAVYYCAARYHYYGLYTSGDYYWGQGTQVTVSS”, “high polyreactivity”.
Turning to “QVQLADSGGGLVQAGGSLRLICAASGTFGSNAMGWYIQAPGKERELVAAINSGGTTKYADSVKGRFTISRDNAKNTVYLQMNRLKPEDSALYYCNAREGVFSYTVAHDYWGQGTQVTVSS”, the “polyreactivity (PSR sort gate)” value was “low polyreactivity”.
“QVQLVESGGGLVQAGGSLRLSCAASGRILGRNAMGWYRQAPGKEREFVAGISYSGTSTYYADSVKGRFTISRDNAKNTVYLQMNSLKPEDTAVYYCAVYTGRQPRVSGKYYYWGQGTQVTVSS”: the “polyreactivity (PSR sort gate)” value is “high polyreactivity”.
With “QVQLVESGGGLAQAGGSLRLSCAASGNIFRINGMGWYRQAPGKERELVASITRSGSTYYADSVKGRFTISRDNAKNTVYLQMNSLKPEDTAVYFCAADSRRYGVRFDYWGQGTQVTVSS” the entry was “low polyreactivity”; with “QVQLVESGGVLVQAGGSLRFSCAASGIIFDQYAMGWYRQAPGKEREFVAVITRSGGSTYYADSVKGRFTISRDNAKKTVYLQMNSLKPEDTAVYYCAAPRLLGKRRRTNDYWGQGTQVTVSS”, “high polyreactivity”.
Turning to “QVQLVESGGGLVQAGGSLRLSCAASGLTFKVNPMGGYRQAPGKERELVPAISSGDRTYYADSVKGRFTISRDNAKNTVDLQMNSLKPEDTAVYYCNARGHNRYGTLLGFGRVPGYDYWGQGTQVTVSS”, the “polyreactivity (PSR sort gate)” value is listed as “low polyreactivity”.
Take “QDQHVESGGGLVQAGGSLRLRCSASVRTYFDYDMGRYRQAPGKERELVAAISQSGGSTYYADSVKGRFTISRDNAKYTFYLVMNSLKPEDTGVYECNAYYGYGHRIYDYWGQGTQVTVSS”: the “polyreactivity (PSR sort gate)” value is given as “high polyreactivity”.
In the case of “QDQLVESGGGLVQAGGSLRLSCAASGSNFGPYAMGGYRHAPGKERELVARISGGGSTYYADSVKGRFTISRDNAKNTVYLQMNSLKPEDTAVYYCNVRNWAYWSHAIIYNYWGQGTLVTVSS” it was “high polyreactivity”; in that of “QVQLVESGGGLVQAGGSLRLSCAASGFIFPTNTMGWYRQAPGKEREFVARITRSGTNTYYADSVKGRFTISRDNAKNTVYLQMNSLKPEDTAVYYCARRGTSSYRRYWLDSASNMDYWGQGTQVTVSS”, “high polyreactivity”; in that of “QVQLVESGGGLVQAGGSLRFSCAASGSIFGTYAMGWYRQAPGKERELVAAITGNGGRTYYADSVKGRFTISRDNAKNTVYLQMNSLKPEDTAVYYCAKATSRRGFYYWGQGTQVTVSS”, “high polyreactivity”.
With “QVQLVESGGGLVQAGASLRLSCAASGRTFRYYAMGWYRQAPGKERELVAAINTGSSTYYADSVKGRFTISRDNAKYTVYLQMNSLKPEDTAVYYCNVFQGTRYGYWGQGTKVTVSS” the entry was “low polyreactivity”; with “QVQLVESGGGLVQAGGSLRLTSAASGRIIDQNAMGWYRQAPGKERELVAAITSGGSTNYADSVKGRFTISRDNAKNTVYLQMNSLKPEDTAVYYCNSRDASRRYDYDFLERDSWGQGTQVTVSS”, “low polyreactivity”; with “QVQLVESGGGLVQAGGSLRLSCAASGIIFPFYAMGWYRQEPGKERELVAAITSGDDTYYADSVKGRFTISRDNAKNTVYLQMNSLKPEDTAVYYCAADSPYVVAWPYVWYFTFDYCGQGTQVTVSS”, “low polyreactivity”.
In the case of “QVQLVESGGGLVQAGGSLRLSCAASGRTFVTNAMGWYRQAPGKERELVAAITQRGGRTYYADSVKGRFTISRDNAKNTVYLQMNSLKPEDTAVYYCAASYYGWSARYDTLGIYEYWGQGTQVTVSS” it was “high polyreactivity”.
With “QVQLVESGGGLVQAGGSLRISCAASGSTFRWYAMGWYRQAPGKEREFVAAITWSGGRTYYADSVKGRFTISRDNAKNTVYLQMNSLKPEDTAVYYGNADDYGDSFNYWGQGTQVTVSS”, the “polyreactivity (PSR sort gate)” value is given as “high polyreactivity”.
“QVQLVESGGGLVQAGGSLRLSCAASGFTFGRYALGWYRQAPGKERELVAAISFSGGRTYYADSVKGRFTISRDKAKNTVYLQMNSLKPEDTAVYYCAARRRQEHVGRSSYARYDYWGQGTQVTVSS”: the “polyreactivity (PSR sort gate)” value is “high polyreactivity”.
Take “QVQLVESGGGLVQAGGRLRLSCAASGITFDLYAMGWYSQAPGKERELVAAISISSTSTYYADSVKGRFTISRDYEKNTVYLQMNSLKPEDTAVYYCNAVPSSKTFWFDYWGQGTQVTVSS”: the “polyreactivity (PSR sort gate)” value was “low polyreactivity”.
With “QVQLVESGGGLVQAGGSLRLSCAASGSIFVGYGALGWYRQAHGKERELVAAITSGTSTYYADSVKGRFTISRDNAKNTVYLQINSLKPEDTAVYYCAARGFLKYVTEFDYWGQGTQVTVSS” the entry was “low polyreactivity”.
